Test results from publication PMC5520056, “Cryo-EM structures of the ATP-bound Vps4^E233Q hexamer and its complex with Vta1 at near-atomic resolution” (Nature Communications, 2017).
Each block holds one binder with its values, some of them ahead of it.

B2: Vps4^E233Q (full-length yeast Vps4 containing an E233Q mutation) (enzyme, Saccharomyces cerevisiae, UniProt P52917 1-437, looked up)
chain: MSTGDFLTKGIELVQKAIDLDTATQYEEAYTAYYNGLDYLMLALKYEKNPKSKDLIRAKFTEYLNRAEQLKKHLESEEANAAKKSPSAGSGSNGGNKKISQEEGEDNGGEDNKKLRGALSSAILSEKPNVKWEDVAGLEGAKEALKEAVILPVKFPHLFKGNRKPTSGILLYGPPGTGKSYLAKAVATEANSTFFSVSSSDLVSKWMGESEKLVKQLFAMARENKPSIIFIDQVDALTGTRGEGESEASRRIKTELLVQMNGVGNDSQGVLVLGATNIPWQLDSAIRRRFERRIYIPLPDLAARTTMFEINVGDTPCVLTKEDYRTLGAMTEGYSGSDIAVVVKDALMQPIRKIQSATHFKDVSTEDDETRKLTPCSPGDDGAIEMSWTDIEADELKEPDLTIKDFLKAIKSTRPTVNEDDLLKQEQFTRDFGQEGN
notes: Vps4 (vacuolar protein sorting 4), Saccharomyces cerevisiae, full length, with E233Q; Hexamer with ATP, dimer without ATP; written as the protomer because its self-association is what is measured; also called E233Q mutant; Vps4 E233Q mutant; source: E. coli BL21 (DE3), purified (Ni-NTA, apyrase treatment, SEC)

Tests used:
[1] = target: B2; test: SEC; Vps4 mutants at 5 uM with Vta1 at molar ratio 1:2, 1 mM ATP, 4 C, 1 h; Superose 6 10/300 GL in assembly buffer; conditions: both partners purified
[2] = target: T1, Vps4 (wild-type, yeast) (Saccharomyces cerevisiae, UniProt P52917 1-437, Cy5 maleimide (labelling efficiency 48%) in the single-molecule assay; unlabelled in the ATPase assay); test: cell-based or functional assay
T1 sequence (looked up): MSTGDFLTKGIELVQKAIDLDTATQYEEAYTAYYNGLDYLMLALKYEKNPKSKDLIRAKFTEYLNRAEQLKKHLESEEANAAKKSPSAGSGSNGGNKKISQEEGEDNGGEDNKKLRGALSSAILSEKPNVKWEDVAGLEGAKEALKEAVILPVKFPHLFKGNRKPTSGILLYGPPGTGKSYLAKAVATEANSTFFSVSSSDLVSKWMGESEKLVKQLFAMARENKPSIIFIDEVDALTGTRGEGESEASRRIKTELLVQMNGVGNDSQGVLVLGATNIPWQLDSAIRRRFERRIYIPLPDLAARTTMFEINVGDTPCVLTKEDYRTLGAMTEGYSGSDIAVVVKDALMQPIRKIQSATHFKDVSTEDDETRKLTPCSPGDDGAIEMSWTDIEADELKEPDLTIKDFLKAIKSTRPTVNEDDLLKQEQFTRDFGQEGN

[3] = target: the molecule itself; test: cryo-EM structure; ATP-bound Vps4^E233Q-Vta1 complex (1.5- to 2-fold molar excess of Vta1, 1 mM ATP, Superose 6), no glutaraldehyde; no symmetry imposed; 4.2 A
[4] = target: the molecule itself; test: SEC-MALS; 200 ul of 5 mg/ml (50 uM) Vps4^E233Q preincubated with 1 mM ATP at 4 C for 1 h; Superdex 200 10/300 GL; assembly buffer (20 mM HEPES pH 7.5, 100 mM NaCl, 1 mM DTT, 2 mM MgCl2, 1 mM ATP)
[5] = target: the molecule itself; test: SEC; oligomeric state without ATP (Supplementary Fig. 9)
[6] = target: the molecule itself; test: SEC; oligomeric state with ATP: each mutant at 100 uM incubated with 1 mM ATP at 4 C for 1 h; Superdex 200 10/300 GL in assembly buffer
[7] = target: T2, Vps4^E233QC376S, Cy5-labelled (single-cysteine mutant) (Saccharomyces cerevisiae, UniProt P52917 1-437, E233Q | C376S, Cy5 maleimide on the single cysteine); test: fluorescence of two dyes in the SEC-separated complex; Cy5-Vps4 and Cy3-Vta1 single-cysteine mutants incubated at molar ratio 1:2 with ATP on ice 1 h, complex separated by SEC in assembly buffer; concentrations from standard curves of fluorescence; conditions: both partners purified
T2 construct: Vps4, Saccharomyces cerevisiae, with E233Q and C376S (only one cysteine left); source: E. coli BL21 (DE3), purified as for other mutant proteins, labelled with Cy5 maleimide
T2 sequence (looked up): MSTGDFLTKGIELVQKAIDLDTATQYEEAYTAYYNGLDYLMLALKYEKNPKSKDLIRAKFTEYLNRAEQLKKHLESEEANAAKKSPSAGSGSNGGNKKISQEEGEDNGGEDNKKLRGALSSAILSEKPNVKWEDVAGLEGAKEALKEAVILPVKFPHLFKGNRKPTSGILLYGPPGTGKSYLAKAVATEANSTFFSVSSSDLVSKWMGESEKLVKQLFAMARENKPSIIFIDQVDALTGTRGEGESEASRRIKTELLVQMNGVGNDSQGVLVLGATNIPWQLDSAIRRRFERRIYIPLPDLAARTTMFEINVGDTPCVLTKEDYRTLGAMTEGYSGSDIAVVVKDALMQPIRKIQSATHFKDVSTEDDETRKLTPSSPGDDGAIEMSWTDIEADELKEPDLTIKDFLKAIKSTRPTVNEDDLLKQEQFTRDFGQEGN

Binder: B2
stoichiometry N [4]: 6
stoichiometry N [5]: 2

B3: Vps4 mutant E233QR325A (enzyme, Saccharomyces cerevisiae, UniProt P52917 1-437, looked up)
chain: MSTGDFLTKGIELVQKAIDLDTATQYEEAYTAYYNGLDYLMLALKYEKNPKSKDLIRAKFTEYLNRAEQLKKHLESEEANAAKKSPSAGSGSNGGNKKISQEEGEDNGGEDNKKLRGALSSAILSEKPNVKWEDVAGLEGAKEALKEAVILPVKFPHLFKGNRKPTSGILLYGPPGTGKSYLAKAVATEANSTFFSVSSSDLVSKWMGESEKLVKQLFAMARENKPSIIFIDQVDALTGTRGEGESEASRRIKTELLVQMNGVGNDSQGVLVLGATNIPWQLDSAIRRRFERRIYIPLPDLAARTTMFEINVGDTPCVLTKEDYATLGAMTEGYSGSDIAVVVKDALMQPIRKIQSATHFKDVSTEDDETRKLTPCSPGDDGAIEMSWTDIEADELKEPDLTIKDFLKAIKSTRPTVNEDDLLKQEQFTRDFGQEGN
notes: Vps4, Saccharomyces cerevisiae, with E233Q and R325A; also called E233QR325A mutant; source: E. coli BL21 (DE3), purified (Ni-NTA, apyrase treatment, SEC)
stoichiometry N [6]: 6
stoichiometry N [5]: 2

The next lines start with results.

binding result [1]: binds
ATPase activity (malachite green) of 1 uM wild-type Vps4 in the presence of Vta1 [2]: 2 fold
B1: Vta1 (Vps twenty associated 1) (natural protein, Saccharomyces cerevisiae)
chain: MASNAARVVATAKDFDKVGLGIIGYYLQLYAVELILSEEDRSQEMTALATELLDTIEAFKKEIGGESEAEDSDKSLHVMNTLIHDQEKAKIYMLNFTMSLYNEKLKQLKDGPWDVMLKRSLWCCIDLFSCILHLWKENISETSTNSLQKRIKYCKIYLSKLAKGEIGSSDEKTLDYADFADDSEEIKDEDVDHQTSDLENNNNDKVEGLAPKDQTTSYEPVDEVPEFIDDADSVNEEEQTVDKNEDAITKDEQQVVKKEVDLTRPSAPSEPAAAEHKSYTKDELTKIMDRASKIEQIQKLAKYAISALNYEDLPTAKDELTKALDLLNSI
notes: Vta1, Saccharomyces cerevisiae, gene amplified from yeast genomic DNA; also called Vta1 dimer; source: E. coli BL21 (DE3), purified (Ni-NTA, apyrase treatment, SEC)
binding result [3]: binds

stoichiometry N [7]: 2.06 Vta1/Vps4^E233Q (molar ratio)
B4: Vta1^C124S154S, Cy3-labelled (single-cysteine mutant) (natural protein, Saccharomyces cerevisiae)
chain: MASNAARVVATAKDFDKVGLGIIGYYLQLYAVELILSEEDRSQEMTALATELLDTIEAFKKEIGGESEAEDSDKSLHVMNTLIHDQEKAKIYMLNFTMSLYNEKLKQLKDGPWDVMLKRSLWCSIDLFSCILHLWKENISETSTNSLQKRIKYSKIYLSKLAKGEIGSSDEKTLDYADFADDSEEIKDEDVDHQTSDLENNNNDKVEGLAPKDQTTSYEPVDEVPEFIDDADSVNEEEQTVDKNEDAITKDEQQVVKKEVDLTRPSAPSEPAAAEHKSYTKDELTKIMDRASKIEQIQKLAKYAISALNYEDLPTAKDELTKALDLLNSI
modifications: Cy3 maleimide on the single cysteine
notes: Vta1, Saccharomyces cerevisiae, with C124S and C154S (only one cysteine left); source: E. coli BL21 (DE3), purified as for other mutant proteins, labelled with Cy3 maleimide
